Experiment: yeast display, Sf9 membrane polyspecificity reagent, FACS + sequencing; frameworks hold sequencing errors
How it was run: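 In a synthetic yeast display library (Saccharomyces cerevisiae BJ5465), nanobody expression was induced with galactose for 36–48 hours. FACS gates were set low and high (top ~1%) using anti-HA fluorescence for expression and streptavidin fluorescence for binding of the Sf9 membrane reagent. Each polyreactivity label is drawn from the gate of origin.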

Sequence: QVQLVESGGVLVQSGGSLRLSCAASGSTFAYYAMGWYRQAPGKERELVAPISWSGGSTYYADSVKVRFTISRDNAKNTVYLQMNSLNPEDTAVYYCNKRNVLDYDYWGQGTQVTVSS
- polyreactivity (PSR sort gate): low polyreactivity

Sequence: QVQLVESGGVLVQSGVSLRLTCAASGITFNYNAMGWDSQAPGKERELVAAIRGSDSTTYYADSVKERFTISRDNAKNTVYLQMNSLKPEDTAVYYCAADYVQGFGFYYQWHYDYWGQGTQVTVSS
- polyreactivity (PSR sort gate): low polyreactivity

Sequence: QVQLVESGGWLVQAGGSLRLSCAASGSSFYGYGMGSYRQAPGKERELVAANTGSGDTTYYADSVKGRFTNSRDNEKNTVYLQMNSLKPEDTAVYYCNARWHAEYDYWGQGTQVTVSS
- polyreactivity (PSR sort gate): low polyreactivity

Sequence: QVQLVESGLGLVQAGGSLRLSCAASGRIFYLNDMGWYRQAPGIERELVADMTRSGGTTYYADSVKGRFTISRDNEKNTVYLQMNSLKPEETSVYYCAAESRFRYVYGVGYRPYLYGYWGQGTQVTVSS
- polyreactivity (PSR sort gate): low polyreactivity

Sequence: QVQLVESGRGIVQAGGSLRLSCAASGSIFGWYAMGWYRQAPGKERELVASNSVTAGSTYYADSVKWRFTISRDNAKNTVYLLMYSLKPVYTAVYYCASDDDTADAVQLFYYWGQGTHVTVSS
- polyreactivity (PSR sort gate): low polyreactivity

Sequence: QVQLVESGRGLDQAGGSLRLSCAASGSIIGANAMGWYRQAPGKERELVAAITDNTSTTFYADSVKGRFTISRDNAKNTVYLQMNSLKPEDTAVYYCNADRAVVLSTTVWGEYDYWGQGTQVTVSS
- polyreactivity (PSR sort gate): low polyreactivity

Sequence: QVQLVESGRGLFQAGGSLRLSCAASGSTFTVNTMGWYRQAPGKERELVDAITKNGANTYYADSVKGRFTISRDNAKNTVYLQMNILKPEDTAVYYCAALYVYGKSYSRWLVELDYWGQGTQVTVSS
- polyreactivity (PSR sort gate): low polyreactivity

Sequence: QVQLVESGRGLLQAGGSLPLSCAASGRIFAYNTMGWYRQAPGKERELVAAISWRGGSTYYADSVKGRFTISRDNAKKTVYFQMNSLKPEDTAVYYCSVLYSSFTRFDYWGQGSQVTVSS
- polyreactivity (PSR sort gate): high polyreactivity

Sequence: QVQLVESGRGLLQAGGSLRLSCAASGSIFYPYVMGWYRQAPGKERELVASISWRGGRTYYADSVKGRFTISRDNAKNTVYLQMNSMKPEDTAVYYCAKRTYDSFYGYYYWGQGTQVTVSS
- polyreactivity (PSR sort gate): high polyreactivity

Sequence: QVQLVESGRGLVLAGGSLRLSCAASGRIFRVNAMGWYRQAPGKERELVAAISRGGNTYYADSVKGRFTISRDNEKNTVSLQMNSLKPEDTAVYYCAASRSWPRMDYWGQGTQVSVSS
- polyreactivity (PSR sort gate): high polyreactivity

Sequence: QVQLVESGRGLVQAGGSLPLSCAASGFIFRRYAMVWYRQAPGKERELVAGISRGGDSTYYADSVKGRFTISRDNAKNTVYLQMNSLKPEDTAVYFCAGQGRDSTPHGYWGQGTQVTVSS
- polyreactivity (PSR sort gate): high polyreactivity

Sequence: QVQLVESGRGLVQAGGSLPLSSASSGLTFKTYAMGRYRQAPGKVSELVAAITSGGTSTYYADSVKGRFTISRDNAKNTVYFQMNSLKPEDTAVYYCAARYYFSYSVGYYYWGQGTQVTVSS
- polyreactivity (PSR sort gate): high polyreactivity

Sequence: QVQLVESGRGLVQAGGSLRISCAASGFIFSKYAMGWYRQAPGKERELVAAISYSGGSTYYADSVKGRFTISRDNAKNTVYLQMNSLKPEDTAVYYCAAEGYGGYEHWGQGTQVTVSS
- polyreactivity (PSR sort gate): low polyreactivity

Sequence: QVQLVESGRGLVQAGGSLRISSAASGFIYRYYAMGWYRQAPGKERELVAAINTGGTTYYADSVKGRFTISRDNAKNTVYFQMNSLKPEDTAVYYCAKRWPRSSLGDYWGQGTQVTVSS
- polyreactivity (PSR sort gate): high polyreactivity

Sequence: QVQLVESGRGLVQAGGSLRLSCAASGFIFRDYAMGLYRQAPGKVRELVAAISSRGGGTSYADSVKGRFTITRDNAKNTVYLQMNSLKPEDTAVYYCNKGYGRYVVTAYDYWGQGTQVTVSS
- polyreactivity (PSR sort gate): high polyreactivity

Sequence: QVQLVESGRGLVQAGGSLRLSCAASGFIFRYYAMGWYRQAPGKERELVAAINASGGRTYYADSVKGRFTISRDNARNSVYLQMNSLKPEDTAVYYCAAYRSYQTFDYWGQGTQVNVSS
- polyreactivity (PSR sort gate): high polyreactivity

Sequence: QVQLVESGRGLVQAGGSLRLSCAASGFIFYSNAMGWYRQAPGKERELVAAISRGGGSTYFADSLKGRFTISRDNAKNTVYLQMNSLKPEDTAVYYCAKRRLSPQDDYWGQGTQVTVSS
- polyreactivity (PSR sort gate): high polyreactivity

Sequence: QVQLVESGRGLVQAGGSLRLSCAASGFTFAGYAMGWYRQATGKERELVAAITWSGGRTYYADSVKGRFTISRDNAKNTVYLQMKSLKPEDTAVYYCAAASGRSRYEYWGQGTQVTVSS
- polyreactivity (PSR sort gate): high polyreactivity

Sequence: QVQLVESGRGLVQAGGSLRLSCAASGIIFTYNAMGWYRQAPGKERELVAAISAGGGSTYYADSVKGRFTISRDNAKNTVYLQMNSLKPEDTAVYYCAAARRYATQFHYDSWGQGTQVTVSS
- polyreactivity (PSR sort gate): high polyreactivity

Sequence: QVQLVESGRGLVQAGGSLRLSCAASGITFLDYAMGWYRQAPGKERELVAAITKSGGSTYYADSVKGRFTISRDNAKNTVFLQMNSLKPEDTAVYYCAKGRHPLWVEQPYEFDYWGQGTQVTVSS
- polyreactivity (PSR sort gate): low polyreactivity

Sequence: QVQLVESGRGLVQAGGSLRLSCAASGITFVRYAMGWYRQAPGKEREFVAAITTSGGSTYYADSVKGRFTISRDNAKYSVYLQLNSLKPEDTAVYYCAARANAASRTFNYWGQGTQVTVSS
- polyreactivity (PSR sort gate): high polyreactivity

Sequence: QVQLVESGRGLVQAGGSLRLSCAASGNTFGENAMGWYRKAPGKERELVAAISNGGTTNYADSVKGRFTISRDNAKNSVYLQMNSLKPEDTAVYYCNAKFGISQPGHSGLLKMDYWGQGTQVTVSS
- polyreactivity (PSR sort gate): low polyreactivity

Sequence: QVQLVESGRGLVQAGGSLRLSCAASGRIFDKYAMGWYRQAPGKERELVAAISSSGGSTYYADSVKGRFTISRDNAKNTVYLQMNSLKTEVTAVYYCARQRYYGYYYWGQGTQVTVSS
- polyreactivity (PSR sort gate): high polyreactivity

Sequence: QVQLVESGRGLVQAGGSLRLSCAASGRIFRWYDMGWYRKAPGKERELVAAISSRGGSTYYADSVKGRFTISRDNAKNTVYLQMNSLKPEDTAVYYCAADTSGWQPRYDYWGQGTQVTVSS
- polyreactivity (PSR sort gate): high polyreactivity

Sequence: QVQLVESGRGLVQAGGSLRLSCAASGRIFSVNTMGWYRQAPGKERELVAGITGGGSTNYADSVKGRFTISRDNAKNTVYLQMNSLKPEDTAVYYCAAGWRSGFDYWGQGTQVTVSS
- polyreactivity (PSR sort gate): high polyreactivity

Sequence: QVQLVESGRGLVQAGGSLRLSCAASGRTFRWYAMGWYRKAPGKERELVAAISGSGDRTYYADSVKGRFTISRDNAKNTVYLQMYSLKPVDTAVYYCYKAYLLYYTYARGDYWGQGTQVTVSS
- polyreactivity (PSR sort gate): high polyreactivity

Sequence: QVQLVESGRGLVQAGGSLRLSCAASGRTFYLYAMVWNIQAPGKERELVAAITFNGGSTYYADSVKGRFTISRDNAKNTVYLQMNSLKPEDTAVYYCAARLSKRSGYYYWGQVTQVTVSS
- polyreactivity (PSR sort gate): high polyreactivity

Sequence: QVQLVESGRGLVQAGGSLRLSCAASGSIFTTNAMGWYRQAPGKERELVAAISKSGASTYYADSVKGRVTISRDNAKNTVYLQMNSLKPEDTAVYYCAAGLRYTGRFRFYYWGQGTQVTVSS
- polyreactivity (PSR sort gate): high polyreactivity

Sequence: QVQLVESGRGLVQAGGSLRLSCAASGSTFATYAMGWYRQAPGKERELVAVITRGGRTYYADSVKGRFTISRDNAKNTVYLQMNSLKPEDNAVYYCAAKAYTYYARIGFDYWGQGTQVTVSS
- polyreactivity (PSR sort gate): high polyreactivity

Sequence: QVQLVESGRGLVQAGGSLRLSCAASGSTFFDYAMGWYRQAPGKERELVATISWNGGSTYYADSVKGRFTISRDTATNTVYLQMNSLKPEDTAVYYCAKDRGYRYLGDYWGQGTQVSVSS
- polyreactivity (PSR sort gate): low polyreactivity

Sequence: QVQLVESGRGLVQAGGSLRLSCAASGSTFGPYAMGWYRQAPGKEREFVAGISKSTSSTYYADSVKGRFTISRDNAKNTVYLQMNSLKPEDTAVYYCAAQGGRNRGYRYYWGQGTQVTVSS
- polyreactivity (PSR sort gate): high polyreactivity

Sequence: QVQLVESGRGLVQAGGSLRLSCAASGSTFPKNAMGWYRQAPGKERELVASISSDGSTYYADSVKGRFTISRDNAKNTVYLQMNSLKPEDTAVYYCAAVLWEPPVHPGYDYWGQVTQVTVSS
- polyreactivity (PSR sort gate): low polyreactivity

Sequence: QVQLVESGRGLVQAGGSLRLSCAASGSTFQSNAMGWYRQATGKERELVAAIDQSGGSTYYADSVKGRFTISRHNAKNTVYLQMNSLKPEDSAVYYCAAEYYYPQQPRKWYGYWGQGTQVTVSS
- polyreactivity (PSR sort gate): high polyreactivity

Sequence: QVQLVESGRGLVQAGGSLRLSCAASGSTFVKYAMGWYRPAPGKERELVAAMNRSGASTYYADSVKGRFTISRDNAKNTVYLQMNSLKPEDTAVYYCAARFSWLGYYWGQGTQVTVSS
- polyreactivity (PSR sort gate): high polyreactivity

Sequence: QVQLVESGRGLVQAGGSLRLSCAASGSTFYANTMGWYRQAPGKERELVAAISQSGGSTYYADSVKGRFTISRDNAKNTVYLQMNSLKPEDTAVYYCAARRLPRKERKLYYWGQGTQVTVSS
- polyreactivity (PSR sort gate): high polyreactivity

Sequence: QVQLVESGRGLVQAGGSLRLSCAASGSTFYRYAMGWYRQAPGKERELVAGITGSGGRTYYADSVKGRFTISRDNAKNTVYLQMNSLKPEDTAVYYCNAYPSSSLFDYWGQGTQVTVSS
- polyreactivity (PSR sort gate): low polyreactivity

Sequence: QVQLVESGRGLVQAGGSLRLSCAASGSTLYAYAMGWYRQAPGKESELVAAIRRGGRTNYADSVKGRFTISRDNAKNTVYLQMNSLKPEDTAVYYCAARGSKPYSNRLLDYWGLGTQVTVSS
- polyreactivity (PSR sort gate): high polyreactivity

Sequence: QVQLVESGRGLVQAGGSLRLSCAASGSTRRYVMGWYRQAPGKERELVAVISRGGSTYYADSVKGRFTISRDNAKNSVYLQMNSLKPEDTAVYYCNGQPVIPRGGDYWGQATQVTVSS
- polyreactivity (PSR sort gate): high polyreactivity

Sequence: QVQLVESGRGLVQAGGSLRLSCAASGVIFSIYAMGWYRQAPGKERELVAAISTSGGSTYYADSVKGRFTISRDNAKNTVYLQMNRLKPEDTAVYYCNARRGFYWSWRGRYISGDYWGQGTQVTVSS
- polyreactivity (PSR sort gate): high polyreactivity

Sequence: QVQLVESGRGLVQAGGSLRLSCAGSGSIFEGYVMGWSRQAPGKEMELVAAITSGGGSTYYADSVKGRFTSSRDNAKNTVYLQMISVKPVDTALYYCNAVYRWVYRSYEYWGQGTQGTVSS
- polyreactivity (PSR sort gate): high polyreactivity

Sequence: QVQLVESGRGLVQAGGSLRLSCASSGRIFARNAMGWYRKAPGQEREFVAAITFSGGSTYYAESVKGRFTISRDNAKNTVYLQMNSLKPEDTAVYYCAARSFDDWGQGTQVTVSS
- polyreactivity (PSR sort gate): high polyreactivity

Sequence: QVQLVESGRGLVQAGGSLRLSCDSSGLTFTYNAMGWYRQAPGKERELVAVISYGGGSTYYADSVKGRFTISRDNAKNTVYLQMNSLNPEDNAVYYCAAVYGGYLYYYGGYAEYDYWGQGTQVTVSS
- polyreactivity (PSR sort gate): low polyreactivity

Sequence: QVQLVESGRGLVQAGGSLRLSFAASGITFGPNEMGWYRQAPGKERELVAAISKSGGTTYYADSVKGRFTISRDNAKNTDYLQMNSLKPEDTAVYYCAARCYPYYASFRYDYWGQGTQVTVSS
- polyreactivity (PSR sort gate): high polyreactivity
